Measured values as given in US20170015742A1 (published 2017).

How the values were obtained:
[1] = target: recombinant human VEGF165 (human, UniProt P15692 207-395); test: cell-based or functional assay
[2] = target: recombinant human PDGF-BB (human, UniProt P01127 82-190); test: cell-based or functional assay
recombinant human PDGF-BB, sequence (P01127 82-190 limits assumed): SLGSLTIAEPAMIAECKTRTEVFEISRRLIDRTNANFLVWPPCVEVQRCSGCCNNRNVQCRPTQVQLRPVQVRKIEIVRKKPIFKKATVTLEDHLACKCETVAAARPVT

recombinant human VEGF165, sequence (P15692 other isoform, or with tags, fused parts or gaps limits assumed): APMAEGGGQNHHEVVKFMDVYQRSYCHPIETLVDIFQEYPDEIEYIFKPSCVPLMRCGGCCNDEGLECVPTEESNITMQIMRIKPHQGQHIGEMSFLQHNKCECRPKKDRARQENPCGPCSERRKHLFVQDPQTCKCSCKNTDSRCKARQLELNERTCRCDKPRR

Potency IC50 (nM) HMVEC-d hVEGF165 [1] [nM] | Potency IC50 (nM) NIH-3T3 hPDGF-BB [2] [nM] | Binder
0.064 | 0.031 | CL-33675_GS_9E10.1 (bispecific antibody, human IgG1, kappa, L234A L235A) heavy: EVTLRESGPALVKPTQTLTLTCTFSGFSLSTYGMGVGWIRQPPGKALEWLANIWWDDDKYYNPSLKNRLTISKDTSKNQVVLTMTNMDPVDTATYYCARIESSGPKYSFDYWGQGTMVTVSSGGGGSGGGGSEIQLVQSGSELKKPGASVKVSCKASGYTFTNYGMYWVKQAPGQGLEYMGWIDTETGRPTYADDFKGRFVFSLDTSVSTAYLQISSLKAEDTAVYFCARWSGDTTGIRGPWFAYWGQGTLVTVSSASTKGPSVFPLAPSSKSTSGGTAALGCLVKDYFPEPVTVSWNSGALTSGVHTFPAVLQSSGLYSLSSVVTVPSSSLGTQTYICNVNHKPSNTKVDKKVEPKSCDKTHTCPPCPAPEAAGGPSVFLFPPKPKDTLMISRTPEVTCVVVDVSHEDPEVKFNWYVDGVEVHNAKTKPREEQYNSTYRVVSVLTVLHQDWLNGKEYKCKVSNKALPAPIEKTISKAKGQPREPQVYTLPPSREEMTKNQVSLTCLVKGFYPSDIAVEWESNGQPENNYKTTPPVLDSDGSFFLYSKLTVDKSRWQQGNVFSCSVMHEALHNAYTQKSLSLSPGK light: EIVLTQSPGTLSLSPGERATLSCRASSGSIWYSFVSWYQQKPGQAPRLLIYADDQRASGIPDRFSGSGSGTDFTLTISRLEPEDFAVYYCQSYGINIDVVFGGGTKVEIKGGSGGGGSGGDIRMTQSPSSLSASVGDRVTIECLASEDIYSDLAWYQQKPGKSPKLLIYNANGLQNGVPSRFSGSGSGTDYSLTISSLQPEDVATYFCQQYNYFPGTFGQGTKLEIKRTVAAPSVFIFPPSDEQLKSGTASVVCLLNNFYPREAKVQWKVDNALQSGNSQESVTEQDSKDSTYSLSSTLTLSKADYEKHKVYACEVTHQGLSSPVTKSFNRGEC
0.082 | 0.037 | CL-33675_GS_9E10.6 (bispecific antibody, human IgG1, kappa, L234A L235A) heavy: EVTLRESGPALVKPTQTLTLTCTFSGFSLSTYGMGVGWIRQPPGKALEWLANIWWDDDKYYNPSLKNRLTISKDTSKNQVVLTMTNMDPVDTATYYCARIESSGPKYSFDYWGQGTMVTVSSGGGGSGGGGSEVQLVQSGAEVKKPGSSVKVSCKASGYTFTNYGMYWVRQAPGQGLEWMGWIDTETGRPTYADDFKGRFTFTADKSTSTAYMELSSLRSEDTAVYYCARWSGDTTGIRGPWFAYWGQGTLVTVSSASTKGPSVFPLAPSSKSTSGGTAALGCLVKDYFPEPVTVSWNSGALTSGVHTFPAVLQSSGLYSLSSVVTVPSSSLGTQTYICNVNHKPSNTKVDKKVEPKSCDKTHTCPPCPAPEAAGGPSVFLFPPKPKDTLMISRTPEVTCVVVDVSHEDPEVKFNWYVDGVEVHNAKTKPREEQYNSTYRVVSVLTVLHQDWLNGKEYKCKVSNKALPAPIEKTISKAKGQPREPQVYTLPPSREEMTKNQVSLTCLVKGFYPSDIAVEWESNGQPENNYKTTPPVLDSDGSFFLYSKLTVDKSRWQQGNVFSCSVMHEALHNAYTQKSLSLSPGK light: EIVLTQSPGTLSLSPGERATLSCRASSGSIWYSFVSWYQQKPGQAPRLLIYADDQRASGIPDRFSGSGSGTDFTLTISRLEPEDFAVYYCQSYGINIDVVFGGGTKVEIKGGSGGGGSGGDIRMTQSPSSLSASVGDRVTITCLASEDIYSDLAWYQQKPGKSPKLLIYNANGLQNGVPSRFSGSGSGTDYTLTISSLQPEDVATYFCQQYNYFPGTFGQGTKLEIKRTVAAPSVFIFPPSDEQLKSGTASVVCLLNNFYPREAKVQWKVDNALQSGNSQESVTEQDSKDSTYSLSSTLTLSKADYEKHKVYACEVTHQGLSSPVTKSFNRGEC
0.067 | 0.037 | 1E3.4_GS_CL-33675 (bispecific antibody, human IgG1, kappa, L234A L235A) heavy: EIQLVQSGSELKKPGASVKVSCKASGYPFTNSGMYWVKQAPGQGLEYMGWINTEAGKPTYADDFKGRFVFSLDTSVSTAYLQISSLKAEDTAVYFCARWGYISDNSYGWFDYWGQGTLVTVSSGGGGSGGGGSEVTLRESGPALVKPTQTLTLTCTFSGFSLSTYGMGVGWIRQPPGKALEWLANIWWDDDKYYNPSLKNRLTISKDTSKNQVVLTMTNMDPVDTATYYCARIESSGPKYSFDYWGQGTMVTVSSASTKGPSVFPLAPSSKSTSGGTAALGCLVKDYFPEPVTVSWNSGALTSGVHTFPAVLQSSGLYSLSSVVTVPSSSLGTQTYICNVNHKPSNTKVDKKVEPKSCDKTHTCPPCPAPEAAGGPSVFLFPPKPKDTLMISRTPEVTCVVVDVSHEDPEVKFNWYVDGVEVHNAKTKPREEQYNSTYRVVSVLTVLHQDWLNGKEYKCKVSNKALPAPIEKTISKAKGQPREPQVYTLPPSREEMTKNQVSLTCLVKGFYPSDIAVEWESNGQPENNYKTTPPVLDSDGSFFLYSKLTVDKSRWQQGNVFSCSVMHEALHNAYTQKSLSLSPGK light: ATQLTQSPSSLSASVGDRVTISCRASEGVYSYMHWYQQKPGKQPKLLIYKASNLASGVPSRFSGSGSGTDFTLTISSLQPEDFATYFCHQNWNDPLTFGQGTKLEIKGGSGGGGSGGEIVLTQSPGTLSLSPGERATLSCRASSGSIWYSFVSWYQQKPGQAPRLLIYADDQRASGIPDRFSGSGSGTDFTLTISRLEPEDFAVYYCQSYGINIDVVFGGGTKVEIKRTVAAPSVFIFPPSDEQLKSGTASVVCLLNNFYPREAKVQWKVDNALQSGNSQESVTEQDSKDSTYSLSSTLTLSKADYEKHKVYACEVTHQGLSSPVTKSFNRGEC
0.092 | 0.329 | 1E3.4_GS_9E8.4 (bispecific antibody, human IgG1, kappa, L234A L235A) heavy: EIQLVQSGSELKKPGASVKVSCKASGYPFTNSGMYWVKQAPGQGLEYMGWINTEAGKPTYADDFKGRFVFSLDTSVSTAYLQISSLKAEDTAVYFCARWGYISDNSYGWFDYWGQGTLVTVSSGGGGSGGGGSEVTLRESGPALVKPTQTLTLTCTFSGFSLSTYGMGVGWIRQPPGKALEWLANIWWDDDKYYNPSLKNRLTISKDTSKNQVVLTMTNMDPVDTATYYCARIESIGTTYSFDYWGQGTMVTVSSASTKGPSVFPLAPSSKSTSGGTAALGCLVKDYFPEPVTVSWNSGALTSGVHTFPAVLQSSGLYSLSSVVTVPSSSLGTQTYICNVNHKPSNTKVDKKVEPKSCDKTHTCPPCPAPEAAGGPSVFLFPPKPKDTLMISRTPEVTCVVVDVSHEDPEVKFNWYVDGVEVHNAKTKPREEQYNSTYRVVSVLTVLHQDWLNGKEYKCKVSNKALPAPIEKTISKAKGQPREPQVYTLPPSREEMTKNQVSLTCLVKGFYPSDIAVEWESNGQPENNYKTTPPVLDSDGSFFLYSKLTVDKSRWQQGNVFSCSVMHEALHNAYTQKSLSLSPGK light: ATQLTQSPSSLSASVGDRVTISCRASEGVYSYMHWYQQKPGKQPKLLIYKASNLASGVPSRFSGSGSGTDFTLTISSLQPEDFATYFCHQNWNDPLTFGQGTKLEIKGGSGGGGSGGEFVLTQSPGTLSLSPGERATLSCERSSGDIGDSYVSWYQQKPGQAPRLVIYADDQRPSGIPDRFSGSGSGTDFTLTISRLEPEDFAVYYCQSYDINIDIVFGGGTKVEIKRTVAAPSVFIFPPSDEQLKSGTASVVCLLNNFYPREAKVQWKVDNALQSGNSQESVTEQDSKDSTYSLSSTLTLSKADYEKHKVYACEVTHQGLSSPVTKSFNRGEC
